Measurements taken from patent US20260275319.

Columns and labels:
[1] = biological target: T1, (15)KDPGA(10) peptide, M. jannaschii MtrA-derived, without fluorophore
T1 chain: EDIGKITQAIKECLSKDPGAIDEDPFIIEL

[2] = biological target: T2, PGA(10F) peptide, M. jannaschii MtrA-derived
T2 chain: PGAIDEDPFIIEL

[3] = biological target: T3, PGA(10) peptide, M. mazei MtrA-derived
T3 chain: PGAFDADPLVVEI

[4] = biological target: T4, PGA(5) peptide, M. mazei MtrA-derived
T4 chain: PGAFDADP

[5] = biological target: T5, M. mazei PGA(15)-Ub with C-terminal His-tag
T5 chain: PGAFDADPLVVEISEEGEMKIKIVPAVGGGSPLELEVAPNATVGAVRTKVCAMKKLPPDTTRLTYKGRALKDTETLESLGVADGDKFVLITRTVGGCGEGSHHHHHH

[6] = biological target: T6, (0)KDPGA(10) peptide, M. mazei MtrA-derived
T6 chain: KDPGAFDADPLVVEI

[7] = biological target: T7, (5)KDPGA(10F) peptide, M. mazei MtrA-derived
T7 chain: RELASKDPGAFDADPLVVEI

[8] = biological target: T8, M. mazei Ub-(5)KDPGA(15) with N-terminal His-tag
T8 chain: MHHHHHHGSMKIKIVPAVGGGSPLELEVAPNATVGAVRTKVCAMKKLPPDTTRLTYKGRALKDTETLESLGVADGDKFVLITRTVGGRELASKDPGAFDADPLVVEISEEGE

[9] = biological target: T9, (15)KDPGA(10F) peptide, M. jannaschii MtrA-derived
T9 chain: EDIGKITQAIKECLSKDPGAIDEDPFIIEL

[10] = biological target: T10, PGA(10) peptide, M. jannaschii MtrA-derived
T10 chain: PGAIDEDPFIIEL

B1: M. mazei Adriase with C-terminal His-tag (protein)
chain: TLVIAFIGKNGAVMAGDMREITFEGEKPDREKLEKELYSGSIVTDEEMQKKAEEFGVKITVADCKEKVSERNGVLVGEVSSAEGGVVKKRRLYASAGNFAIAELINTEMTLTSQGKGSNFIAFGNEFTKQVANKCFKDNWTKKSNLQDAVKILILCMETVARKTASVSKQFMIVQTASNADVLKVVEKDRNCGSHHHHHH
ligase activity with M. jannaschii (15)KDPGA(10) and PGA(10F) peptides, fluorescent product on SDS-PAGE [1]: also M. mazei Adriase showed activity when incubated with the M. jannaschii derived peptides | ligase activity with M. jannaschii (15)KDPGA(10) and PGA(10F) peptides, fluorescent product on SDS-PAGE [2]: also M. mazei Adriase showed activity when incubated with the M. jannaschii derived peptides | maximum ligation rate, ligation of (5)KDPGA(10F) with PGA(10), Michaelis-Menten fit [3]: a maximum rate of ~2.25 ligations per enzyme and second | substrate concentration at half maximal reaction speed, ligation of (5)KDPGA(10F) with PGA(10) [3]: The half maximal reaction speed is observed at a substrate concentration of ~9 µM each | ligase activity with PGA(5) as secondary and Ub-(5)KDPGA(15) as primary substrate, SDS-PAGE time course [4]: No Adriase activity was observed with (0)KDPGA(10) or PGA(5) substrates (n.d.; SEQ ID NO: 531 and 529) | ligation rate coefficient at 25 µM substrate, ligation of Ub-(5)KDPGA(15) with PGA(15)-Ub [5]: 0.74±0.05 sec^-1 at 25 µM | ligation rate coefficient at 50 µM substrate, ligation of Ub-(5)KDPGA(15) with PGA(15)-Ub [5]: 0.88±0.07 sec^-1 at 50 µM | ligation rate coefficient at 100 µM substrate, ligation of Ub-(5)KDPGA(15) with PGA(15)-Ub [5]: 0.90±0.14 sec^-1 at 100 µM substrate concentration | maximum rate of the protein-protein ligation of Ub-(5)KDPGA(15) with PGA(15)-Ub [5]: a maximum rate of 0.92 ligations per enzyme and second | substrate concentration at the half-maximum rate, ligation of Ub-(5)KDPGA(15) with PGA(15)-Ub [5]: the half-maximum rate is observed at a substrate concentration of 2.2 µM each | ligase activity with (0)KDPGA(10) as primary and PGA(15)-Ub as secondary substrate, SDS-PAGE time course [6]: No Adriase activity was observed with (0)KDPGA(10) or PGA(5) substrates (n.d.; SEQ ID NO: 531 and 529) | maximum ligation rate, ligation of (5)KDPGA(10F) with PGA(10), Michaelis-Menten fit [7]: a maximum rate of ~2.25 ligations per enzyme and second | substrate concentration at half maximal reaction speed, ligation of (5)KDPGA(10F) with PGA(10) [7]: The half maximal reaction speed is observed at a substrate concentration of ~9 µM each | ligation rate coefficient at 25 µM substrate, ligation of Ub-(5)KDPGA(15) with PGA(15)-Ub [8]: 0.74±0.05 sec^-1 at 25 µM | ligation rate coefficient at 50 µM substrate, ligation of Ub-(5)KDPGA(15) with PGA(15)-Ub [8]: 0.88±0.07 sec^-1 at 50 µM | ligation rate coefficient at 100 µM substrate, ligation of Ub-(5)KDPGA(15) with PGA(15)-Ub [8]: 0.90±0.14 sec^-1 at 100 µM substrate concentration | maximum rate of the protein-protein ligation of Ub-(5)KDPGA(15) with PGA(15)-Ub [8]: a maximum rate of 0.92 ligations per enzyme and second | substrate concentration at the half-maximum rate, ligation of Ub-(5)KDPGA(15) with PGA(15)-Ub [8]: the half-maximum rate is observed at a substrate concentration of 2.2 µM each

B2: M. jannaschii Adriase with C-terminal His-tag (protein)
chain: SLIICYYGKNGAVIGGDRRQIFFRGSEENRKILEEKLYSGEIKSEEELYKLAEKLNIKIIIEDDREKVRKISDSVVCGEVRSLGIDAKRRRVYATKGKCAIVDILNDTVTNQTIKEGFGIVVLGNRFLKKKAEEELKRTAKLFPMMPIQQIEDAIKEIFEKLKWHPTVSKEYDIYSVNKYEKNFEEVIKKDIESLFKYREQLRKQLIDFGKVMSIVNKIVKNGEIGVIKDGKLHLYDDYIAIDKIDPNPKVFKVVDVEGNFKDGDIVVIENGDMKIKGTNEKVTTKYIIIHKGSHHHHHH
maximum ligation rate, recombination of (15)KDPGA(10F) with PGA(10), Michaelis-Menten fit [9]: maximum rate of ~1.4 ligations per enzyme and second | substrate concentration at half maximal reaction speed, recombination of (15)KDPGA(10F) with PGA(10) [9]: The half maximal reaction speed is observed at a substrate concentration of 23 µM each | maximum ligation rate, recombination of (15)KDPGA(10F) with PGA(10), Michaelis-Menten fit [10]: maximum rate of ~1.4 ligations per enzyme and second | substrate concentration at half maximal reaction speed, recombination of (15)KDPGA(10F) with PGA(10) [10]: The half maximal reaction speed is observed at a substrate concentration of 23 µM each
